Test [1] addresses T1, CLDN6 endogenously expressed by human cancer cell lines (ARK2, OVCA429) (human, UniProt P56747 1-220).
T1 construct: Untagged endogenous protein; also called Endogenous CLDN6+
T1 sequence: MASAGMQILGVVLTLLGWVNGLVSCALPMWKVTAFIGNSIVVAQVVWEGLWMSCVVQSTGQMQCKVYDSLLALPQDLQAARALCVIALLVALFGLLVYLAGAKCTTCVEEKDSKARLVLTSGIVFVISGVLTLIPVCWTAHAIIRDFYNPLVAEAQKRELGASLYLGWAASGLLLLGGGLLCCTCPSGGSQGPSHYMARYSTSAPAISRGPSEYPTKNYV
The test is described as follows: FACS, 1.5 µg Ab, OVCA429 cells. For orientation: In flow cytometry, cells or beads pass a laser one at a time.

In test [2] the target is T1, CLDN6 endogenously expressed by human …. The test is described as follows: FACS, 1.5 µg Ab, ARK2 cells. As for the experimental part: (§1) FACS assays were also carried out to determine relative antigen binding strengths of the humanized antibodies (at either 1.5 μg or 0.3 μg) for binding to CLDN6 as expressed by the indicated cancer cell lines. 2nd Ab only was used as a negative control.

Test [3] deals with T2, human CLDN6 fused to GFP, expressed on engineered HEK293T cells (HEK293T-CLDN6-mGFP) (human, UniProt P56747 1-220).
T2 construct: It calls residues 1-21 a signal peptide; also called Claudin-6; HEK293T-CLDN6-mGFP Artificial CLDN6+; not shown: mGFP tag
T2 sequence: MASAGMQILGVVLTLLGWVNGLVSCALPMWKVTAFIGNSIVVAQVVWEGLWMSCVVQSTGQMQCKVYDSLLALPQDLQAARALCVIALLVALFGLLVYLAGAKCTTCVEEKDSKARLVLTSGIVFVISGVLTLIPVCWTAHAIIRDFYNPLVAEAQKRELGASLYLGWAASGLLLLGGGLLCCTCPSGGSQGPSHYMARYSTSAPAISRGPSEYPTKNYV
Nature of the test: FACS, 1.5 µg Ab, 293T clone with human CLDN6. The essentials:
(§2)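 Binding of humanized antibodies to human CLDN6 was measured by flow cytometry on engineered 293T clones, following the source's direct-binding protocol closely. Each antibody was used at 0.3 µg or 1.5 µg. Cells were detached with EDTA, incubated for 30 min on ice in the dark with antibody labelled with Alexa Fluor 647 NHS ester, washed and read on a BD Accuri C6 in channel FL4H. The fluorescence signal serves as a measure of relative antigen binding strength.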

Test [4] deals with T2, human CLDN6 fused to GFP, expressed on …. The test is described as follows: FACS, 0.3 µg Ab, 293T clone with human CLDN6. The method in brief: as §2
In test [5] the target is T1, CLDN6 endogenously expressed by human …. Nature of the test: FACS, 0.3 µg Ab, ARK2 cells. On the procedure:
as §1

B1: AB18-chim (antibody, V domains shown)
VH: QVQLKQSGPELEKPGASVKISCKASGYSFTGYNMNWVKQSNGKSLEWIGNIDPYYGGSTYNQKFTGKATLTVDKSSSTAYMQLKSLTSEDSAVYYCARERSGYVFSAMDYWGQGTSVTVSS
VL: NIMMTQSPSSLAVSAGEKVTMSCKSSQSVLFSSNQKNYLAWYQQKPGQSPRLLIYWASTRESGVPDRFTGSGSGTDFTLTISNVQAEDLAVYYCHQYLSSRTFGAGTKLELK
notes: 'chim' is the pre-humanized form (parental variable regions); also called pre-humanized (chimeric) form of AB18
For the molecule B1, the FACS fluorescence came out at 25500 in test [1]; 9150 in test [2]; 135000 in test [3]; 73800 in test [4]; 3440 in test [5].

B2: AB18-3 (antibody, V domains shown)
VH: QVQLVQSGAEVKKPGASVKVSCKASGYSFTGYNMNWVRQAPGQGLEWMGNIDPYYGGSTYAQKFQGRVTMTVDTSTSTVYMELSSLRSEDTAVYYCARERSGYVFSAMDYWGQGTLVTVSS
VL: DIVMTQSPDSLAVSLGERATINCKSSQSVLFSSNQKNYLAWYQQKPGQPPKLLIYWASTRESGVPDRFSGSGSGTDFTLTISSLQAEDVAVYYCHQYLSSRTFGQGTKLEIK
notes: Humanized; also called Humanized AB 18-3
In the case of B2, the FACS fluorescence stood at 2700 in test [1]; 1210 in test [2]; 58900 in test [3]; 30400 in test [4]; 1080 in test [5].

B3: AB4-4 (antibody, V domains shown)
VH: QVQLVQSGAEVKKPGASVKMSCKASGYTFTSYTMHWIRQAPGQGLEWIGYINPSSTYTHYAQKFQGRATLTADTSTSTAYMELSSLRSEDTAVYYCSRGELGGFAYWGQGTLVTVSS
VL: DVVMTQSPLSLPVTLGQPASISCRSSQSLVHSDGNTYLNWYQQRPGQSPRLLIYKVSNRFSGVPDRFSGSGSGTDFTLKISRVEAEDVGVYYCSQSTHVPYTFGQGTKLEIK
notes: also called Humanized AB 4-4
Take B3: the FACS fluorescence in test [1] came to 1200; in test [2], 1400; in test [3], 49000; in test [4], 14100; in test [5], 1050.

B4: AB4-5 (antibody, V domains shown)
VH: QVQLVQSGAEVKKPGASVKMSCKASGYTFTSYTMHWIRQAPGQGQEWIGYINPSSTYTHYAQKFQGRATLTADTSTSTAYMELSSLRSEDTAVYYCSRGELGGFAYWGQGTLVTVSS
VL: DVVMTQSPLSLPVTLGQPASISCRSSQSLVHSDGNTYLNWYQQRPGQSPRLLIYKVSNRFSGVPDRFSGSGSGTDFTLKISRVEAEDVGVYYCSQSTHVPYTFGQGTKLEIK
notes: also called Humanized AB 4-5
In the case of B4, the FACS fluorescence in test [1] is 1350; in test [2], 1200; in test [3] it was 43400; in test [4], 16800; in test [5], 967.

B5: AB4-3 (antibody, V domains shown)
VH: QVQLVQSGAEVKKPGASVKVSCKASGYTFTSYTMHWVRQAPGQGLEWMGYINPSSTYTHYAQKFQGRVTMTADTSTSTVYMELSSLRSEDTAVYYCSRGELGGFAYWGQGTLVTVSS
VL: DVVMTQSPLSLPVTLGQPASISCRSSQSLVHSDGNTYLNWYQQRPGQSPRLLIYKVSNRFSGVPDRFSGSGSGTDFTLKISRVEAEDVGVYYCSQSTHVPYTFGQGTKLEIK
notes: also called Humanized AB 4-3
For the molecule B5, the FACS fluorescence in test [1] came to 1160; in test [2], 1520; in test [3], 47800; in test [4], 14300; in test [5] it was 1190.

B6: AB3-3 (antibody, V domains shown)
VH: EVQLLESGGGLVQPGGSMRLSCAASGFTFSNYWMNWVRQAPGKGLEWVAQIRLKSDNYATHYADSVKGRFTISRDDSKNTVYLQMNSLRAEDTGVYYCNDGPPSGCWGQGTLLTVSS
VL: DIQMTQSPSSLSASVGDRVTITCRISENIYSYLAWYQQKPGKAPKLLVYNAKILVEGVPSRFSGSGSGTDFTLTISSLQPEDFGTYYCQHHYTVPWTFGQGTKLEIK
notes: also called Humanized AB 3-3
Turning to B6, the FACS fluorescence in test [1] turned out to be 88700; in test [2], 54900; in test [3] it was 340000; in test [4], 251000; in test [5], 1160.

B7: AB3-5 (antibody, V domains shown)
VH: EVQLLESGGGLVQPGGSMRLSCAASGFTFSNYWMNWVRQAPGKGLEWVAQIRLKSDNYATHYADSVKGRFTISRDDSKNTVYLQMNSLRAEDTGVYYCNDGPPSGYWGQGTLLTVSS
VL: DIQMTQSPSSLSASVGDRVTITCRISENIYSYLAWYQQKPGKAPKLLVYNAKILVEGVPSRFSGSGSGTDFTLTISSLQPEDFGTYYCQHHYTVPWTFGQGTKLEIK
notes: also called Humanized AB 3-5
On to B7, for which the FACS fluorescence in test [1] turned out to be 2950; in test [2], 2910; in test [3], 48600; in test [4], 13300; in test [5], 1280.

B8: AB3-4 (antibody, V domains shown)
VH: EVQLLESGGGLVQPGGSMRLSCAASGFTFSNYWMNWVRQAPGKGLEWVAQIRLKSDNYATHYADSVKGRFTISRDDSKNTVYLQMNSLRAEDTGVYYCNDGPPSGYWGQGTLLTVSS
VL: DIQMTQSPSSLSASVGDRVTITCRISENIYSYLAWYQQKPGKAPKLLIYNAKILVEGVPSRFSGSGSGTDFTLTISSLQPEDFATYYCQHHYTVPWTFGQGTKLEIK
notes: also called Humanized AB 3-4
Take B8: the FACS fluorescence in test [1] came out at 2960; in test [2], 1460; in test [3], 55800; in test [4] it was 11600; in test [5], 1320.

B9: AB3-2 (antibody, V domains shown)
VH: EVQLLESGGGLVQPGGSMRLSCAASGFTFSNYWMNWVRQAPGKGLEWVAQIRLKSDNYATHYADSVKGRFTISRDDSKNTVYLQMNSLRAEDTGVYYCNDGPPSGCWGQGTLLTVSS
VL: DIQMTQSPSSLSASVGDRVTITCRISENIYSYLAWYQQKPGKAPKLLIYNAKILVEGVPSRFSGSGSGTDFTLTISSLQPEDFATYYCQHHYTVPWTFGQGTKLEIK
notes: also called Humanized AB 3-2
Regarding B9, the FACS fluorescence in test [1] was 85900; in test [2] it was 33600; in test [3], 396000; in test [4], 309000; in test [5], 14700.

B10: AB3-chim (antibody, V domains shown)
VH: EVKLEESGGGLVQPGGSMKLSCVASGFTFSNYWMNWVRQSPEKGLEWVAQIRLKSDNYATHYAESVKGRFTISRDDSKRSVYLQMNNLRAEDTGTYYCNDGPPSGCWGQGTTLIVSS
VL: DIQMTQSPASLSASVGETVTITCRISENIYSYLAWYQQKQGKSPQLLVYNAKILVEGVPSRFSGSGSGTQFSLKINSLQPEDFGNYYCQHHYTVPWTFGGGTKLEIK
notes: 'chim' is the pre-humanized form (parental variable regions); also called pre-humanized (chimeric) form of AB3
Consider B10, for which the FACS fluorescence turned out to be 138000 in test [1]; 29100 in test [2]; 459000 in test [3]; 267000 in test [4]; 17100 in test [5].

B11: AB1-5 (antibody, V domains shown)
VH: QVQLVQSGAEVKKPGASVKVSCKASGYTFTTYTMHWVRQAPGQGLEWMGFINPSSGYTDYAQKFQGRVTMTADTSTSTVYMELSSLRSEDTAVYYCANGDYYVAYWGQGTLVTVSS
VL: DIQLTQSPSSLSASVGDRVTMTCTASSSVSSTYFHWYQQKPGKAPKLWIYSTSNLASGVPSRFSGSGSGTDYTLTISSMQPEDAATYYCHQYHRSPLTFGQGTKLEIK
notes: also called Humanized AB 1-5
For the molecule B11, the FACS fluorescence was 54300 in test [1]; 22400 in test [2]; 213000 in test [3]; 138000 in test [4]; 7490 in test [5].

B12: AB1-8 (antibody, V domains shown)
VH: QVQLVQSGAEVKKPGASVKMSCKASGYTFTTYTMHWVRQAPGQGLEWIGFINPSSGYTDYAQKFQGRVTLTADTSTSTVYMELSSLRSEDTAVYYCANGDYYVAYWGQGTLVTVSS
VL: DIQLTQSPSSLSASVGDRVTMTCTASSSVSSTYFHWYQQKPGKAPKLWIYSTSNLASGVPSRFSGSGSGTDYTLTISSMQPEDAATYYCHQYHRSPLTFGQGTKLEIK
notes: Humanized; also called Humanized AB 1-8
Turning to B12, the FACS fluorescence in test [1] was determined as 66000; in test [2] it was 17600; in test [3], 210000; in test [4], 98800; in test [5], 5810.

B13: AB1-6 (antibody, V domains shown)
VH: QVQLVQSGAEVKKPGASVKMSCKASGYTFTTYTMHWVRQAPGQGLEWIGFINPSSGYTDYAQKFQGRVTLTADTSTSTVYMELSSLRSEDTAVYYCANGDYYVAYWGQGTLVTVSS
VL: DIQMTQSPSSLSASVGDRVTITCTASSSVSSTYFHWYQQKPGKAPKLLIYSTSNLASGVPSRFSGSGSGTDYTLTISSLQPEDFATYYCHQYHRSPLTFGQGTKLEIK
notes: also called Humanized AB 1-6
Regarding B13, the FACS fluorescence in test [1] is 29900; in test [2], 7740; in test [3] it was 227000; in test [4], 120000; in test [5], 2820.
